Assay [1] addresses T1, AMHR-II-ECD-Fc (R&D System) (human, UniProt Q16671 18-149).
T1 construct: Bought construct; also called recombinant AMHR-II; AMHR-II recombinant protein; not shown: Fc part of the bought AMHR-II-ECD-Fc (R&D System)
The experiment in a line: SPR (Bia3000), AMHR-II-ECD-Fc immobilised on CM5, antibody injected, Langmuir 1:1 fit. On the procedure: (§1) Immobilization of AMHRII was performed on a Bia3000 apparatus at 25° C. in HBS-EP (HEPES 10 mM, NaCl 150 mM, EDTA 3 mM, P20 surfactant 0.005%) at […] flow rate on CM5 sensor chip using EDC/NHS (1-Ethyl-3-3-dimethylaminopropyl carbodiimidehydrochloride) activation according to the manufacturer's instructions (GEHealthcare). Briefly, carboxyl functions of CM5 sensor chip were activated with 0.4M EDC/0.1M NHS during 7 min. A solution of AMHR-II-ECD-Fc (R&D System) at 2.5 μg/ml in sodium acetate buffer was injected during 12 min. An injection of 1M ethanolamine hydrochloride was used to neutralize the activation. […] A control reference surface was prepared using the same chemical treatment of without injection of AMHRII.
(§2) Antibodies at different concentrations (from 0.5 nM to 133 nM) were injected during 180s on AMHRII-coated flowcell and the control flowcell. After a dissociation step of 400s in running buffer, sensor surfaces were regenerated using 5 μl of Glycine-HCl pH1.7. All the sensorgrams were corrected by subtracting the low signal from the control reference surface. Kinetic parameters were evaluated from the sensorgrams using a Langmuir 1:1 fitting model on the BiaEvaluation 4.2 software.

Assay [2] has as its target T2, human anti-Müllerian hormone type II receptor (AMHR-II) on COV434 cells (human, UniProt Q16671 18-573).
T2 construct: Receptor at the surface of the COV434 AMHR-II transfected line (about 20000 receptors) or the COV434 WT line (about 2000 receptors); also called AMHR2; AMHR-II surface receptor
T2 sequence: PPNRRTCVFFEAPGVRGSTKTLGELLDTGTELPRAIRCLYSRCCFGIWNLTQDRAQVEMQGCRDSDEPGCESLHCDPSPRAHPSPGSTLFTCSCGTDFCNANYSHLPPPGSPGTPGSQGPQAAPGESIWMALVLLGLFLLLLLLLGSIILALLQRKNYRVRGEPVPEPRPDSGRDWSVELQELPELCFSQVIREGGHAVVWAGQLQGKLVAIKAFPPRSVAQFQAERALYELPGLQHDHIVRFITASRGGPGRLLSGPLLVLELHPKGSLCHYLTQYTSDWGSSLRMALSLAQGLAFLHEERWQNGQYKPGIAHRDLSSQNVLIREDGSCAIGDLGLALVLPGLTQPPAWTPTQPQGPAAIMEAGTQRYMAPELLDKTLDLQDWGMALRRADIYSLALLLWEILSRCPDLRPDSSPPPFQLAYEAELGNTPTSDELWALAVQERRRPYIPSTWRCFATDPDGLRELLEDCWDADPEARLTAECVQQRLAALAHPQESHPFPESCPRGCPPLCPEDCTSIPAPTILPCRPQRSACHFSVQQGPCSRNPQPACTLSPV
The experiment in a line: flow cytometry on COV434 WT cells, antibody at 10 µg/ml. As for the experimental part: B) FACS histogram profiles of COV434WT staining at 10 μg/ml of antibodies. C) Percentage of COV434 WT cell staining with the antibodies.
(§3) The COV434 AMHR-II transfected and the COV434 WT cell lines were maintained in DMEM/GlutaMax (Gibco) supplemented with 10% FBS, penicillin 100 U/ml and Streptomycin 100 μg/ml. Geneticin at 666 μg/ml was added for the COV434 AMHR-II transfected cell line. […] After washes, Phycoerythrin-conjugated anti-human IgG antibody (1:200, Beckman-Coulter) was added for 1 hour at room temperature. FACS analysis of the resuspended cells was done on a BD Accuri™ C6 flow cytometer (BD Bioscience).
(§4) FACS analysis with COV434-AMHR-II transfected cell line is described in FIG. 16. […] The binding capacity of these variants was also assayed on the low expressing AMHR-II COV434 WT cell line.

Assay [3] addresses T2, human anti-Müllerian hormone type II …. The experiment in a line: flow cytometry on COV434 AMHR-II transfected cells, Hill slope fit. On the procedure: (§5) Binding was determined by FACS analysis in the range of concentrations 0.034 to 8 μg/ml. Binding data curves were analyzed used specific binding with Hill slope equation from GraphPad Prism.
as §3, §4

Assay [4] concerns the target T1, AMHR-II-ECD-Fc (R&D System). Put plainly: SPR (Bia3000), AMHR-II-ECD-Fc immobilised; against parental murine 12G4. On the procedure: as §1, §2
Assay [5] has the same target. The experiment in a line: ELISA, 50 ng per well AMHR-II-ECD-Fc coated, HRP anti-human F(ab')2 detection. On the procedure:
ELISA plates (96 wells, Maxisorp, NUnc) were coated overnight at +4° C. with 50 ng per well of AMHR-II-ECD-Fc (R&D System). Coated ELISA plates were blocked with PBS-BSA 4% for 2 hours at 37° C. and washed three times with PBS-Tween20 0.05%. […] The bound anti-AMHR-II antibodies were detected by adding HRP-conjugated F(ab′)2 goat anti-human F(ab′2) fragment specific (Interchim) diluted at 1:10000 and incubated for one hour at 37° C. Revelation was done with TMB (Sigma) and the reaction was stopped by adding H2SO4 1N (v:v). Absorbances were measured at 450 nm and binding data curves were analysis using GraphPad Prism.
A general note: ELISA stands for enzyme-linked immunosorbent assay.

Assay [6] has as its target T2, human anti-Müllerian hormone type II …. Put plainly: flow cytometry on COV434 AMHR-II transfected cells. As for the experimental part: as §5, §3, §4
Background: A flow cytometer gives signals particle by particle.

For assay [7] the target is unchanged. The experiment in a line: flow cytometry on COV434 AMHR2 transfected cells, 0.034 to 8 µg/ml. On the procedure: as §5, §3, §4

Where a chain is given by its changes, count along the chain named. Names and notes keep the numbering of the source.

Four molecules from patent US20170035903A1 (GAMAMABS PHARMA, published 2017) can be followed below.

A word on the Kd: it is the equilibrium constant for the complex coming apart. The koff is the rate constant with which the complex falls apart. By kon is commonly meant the rate constant with which the complex forms. What is called EC50 is the midpoint of the concentration-response curve. High values mean a less potent agent, low ones a more potent agent.

B1: murine 12G4 antibody (antibody, from another filing, V domains shown)
VH: QVQLQQSGPELVKPGASVRMSCKASGYTFTSYHIHWVKQRPGQGLEWIGWIYPGDDSTKYNEKFKGKTTLTADKSSSTAYMLLSSLTSEDSAIYFCTRGDRFAYWGQGTLVTVSA
VL: QIVLTQSPAIMSASLGEGITLTCSASSSVRYIHWYQQKSGTSPKLLIYSTSNLASGVPSRFSGSGSGTFHSLTISSVEAEDAADYYCLQWSSYPWTFGGGTKLEIK
Consider B1, for which, in assay [1], the Ka amounted to 1.27e+09 M⁻¹, the Kd was found to be 0.788 nM, the off-rate (koff) was found to be 2.28e-05 s⁻¹ and the kon is 28900 M⁻¹ s⁻¹.

B2: humanized low fucose 3C23K antibody (antibody, human IgG1, kappa, V domains shown)
VH: QVRLVQSGAEVKKPGASVKVSCKASGYTFTSYHIHWVRQAPGQRLEWMGWIYPGDDSTKYSQKFQGRVTITRDTSASTAYMELSSLRSEDTAVYYCTRGDRFAYWGQGTLVTVSS
VL: DIQMTQSPSTLSASVGDRVTITCRASSSVRYIAWYQQKPGKAPKLLTYPTSSLKSGVPSRFSGSGSGTEFTLTISSLQPDDFATYYCLQWSSYPWTFGGGTKVEIKR
notes: Humanized from murine 12G4, low fucose, prepared as in WO2011/141653A1; also called unconjugated 3C23K; 3C23K unconjugated; copies: 2 + 2
Regarding B2, the “percent of COV434 WT cells stained” value in assay [2] stood at 9.8%. Also, the Kapparent in assay [3] is 2.2 µg/mL. In addition, in assay [4], the “fold higher association rate against 12G4” value amounted to 5 fold and the “fold lower dissociation rate against 12G4” value was 3 fold. Further, in assay [5], the midpoint of the response, the EC50, lay at 0.018 nM. In assay [1], the Ka is 1.81e+10 M⁻¹, the dissociation constant Kd amounted to 0.0553 nM, the off-rate (koff) came to 6.93e-06 s⁻¹ and the on-rate (kon) was 125000 M⁻¹ s⁻¹.

B3: K4D-24 (antibody, V domains shown)
VH: B2 VH with Q1R
VL: DIQMTQSPSTLSASVGDRVTITCRASSSVRYIAWYQQKPGKAPKLLTYPTSSLKSGVPSRFSGSGSGTEFTLTISSLQPDDFATYYCLQWSSYPWTFGGGTKVEIK
notes: Variant of 3C23K with H-Q1R (Kabat)
B3: the “fold improvement of Kapparent against 3C23K” value in assay [6] is 20 fold. Moreover, in assay [2], the “percent of COV434 WT cells stained” value was 76.8%. Also, the Kapparent in assay [3] came out at 0.098 µg/mL. Further, the “fold affinity improvement against 3C23K” value in assay [7] is 22 fold.

B4: 6C59 (antibody, V domains shown)
VH: B2 VH with Q1R
VL: B3 VL with S27P, S28P
notes: Variant of 3C23K with H-Q1R, L-S27P and L-S28P (Kabat)
On to B4, for which the “fold improvement of Kapparent against 3C23K” value in assay [6] came out at 40 fold. In addition, in assay [2], the “percent of COV434 WT cells stained” value worked out at 82.2%. Moreover, the Kapparent in assay [3] was found to be 0.05 µg/mL.
